According to article PMC10397247:

What was measured:
P4SN = biological target: T1, P4SN; test: two-hybrid library CCmax; conditions: mean of both orientations;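 note: natural log of median RNA to DNA barcode read ratio; higher means stronger binding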
T1 chain: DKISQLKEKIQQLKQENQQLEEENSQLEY

P4 = biological target: T2, P4; test: two-hybrid library CCmax;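 note: natural log of median RNA to DNA barcode read ratio; higher means stronger binding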
T2 chain: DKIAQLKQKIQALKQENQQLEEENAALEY

4H264-bA = biological target: T3, 4H264-bA; test: two-hybrid library CCNG1;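 note: natural log of median RNA to DNA barcode read ratio; higher means stronger binding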
T3 chain: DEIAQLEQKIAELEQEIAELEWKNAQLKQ

4H3364-bA = biological target: T4, 4H3364-bA; test: two-hybrid library CCNG1;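 note: natural log of median RNA to DNA barcode read ratio; higher means stronger binding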
T4 chain: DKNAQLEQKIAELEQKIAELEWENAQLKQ

4H2931-bA = biological target: T5, 4H2931-bA; test: two-hybrid library CCNG1;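 note: natural log of median RNA to DNA barcode read ratio; higher means stronger binding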
T5 chain: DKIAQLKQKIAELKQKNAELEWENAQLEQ

4H796-bA = biological target: T6, 4H796-bA; test: two-hybrid library CCNG1;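 note: natural log of median RNA to DNA barcode read ratio; higher means stronger binding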
T6 chain: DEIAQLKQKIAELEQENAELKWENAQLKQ

4H3297-bA = biological target: T7, 4H3297-bA; test: two-hybrid library CCNG1
T7 chain: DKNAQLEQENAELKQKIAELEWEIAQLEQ

4H2233-bA = biological target: T8, 4H2233-bA; test: two-hybrid library CCNG1
T8 chain: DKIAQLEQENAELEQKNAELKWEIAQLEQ

4H3041-bA = biological target: T9, 4H3041-bA; test: two-hybrid library CCNG1
T9 chain: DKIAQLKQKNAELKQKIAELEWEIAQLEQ

4H932-bA = biological target: T10, 4H932-bA; test: two-hybrid library CCNG1
T10 chain: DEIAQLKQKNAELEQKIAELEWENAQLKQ

4H2760-bA = biological target: T11, 4H2760-bA; test: two-hybrid library CCNG1
T11 chain: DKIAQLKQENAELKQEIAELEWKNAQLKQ

4H2162-bA = biological target: T12, 4H2162-bA; test: two-hybrid library CCNG1
T12 chain: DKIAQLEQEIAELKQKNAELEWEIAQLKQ

4H2518-bA = biological target: T13, 4H2518-bA; test: two-hybrid library CCNG1
T13 chain: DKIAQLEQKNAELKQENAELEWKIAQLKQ

4H2585-bA = biological target: T14, 4H2585-bA; test: two-hybrid library CCNG1
T14 chain: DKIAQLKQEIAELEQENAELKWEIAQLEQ

4H730-bA = biological target: T15, 4H730-bA; test: two-hybrid library CCNG1
T15 chain: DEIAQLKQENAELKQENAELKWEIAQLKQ

4H2859-bA = biological target: T16, 4H2859-bA; test: two-hybrid library CCNG1
T16 chain: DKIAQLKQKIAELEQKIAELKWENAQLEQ

4H235-bA = biological target: T17, 4H235-bA; test: two-hybrid library CCNG1
T17 chain: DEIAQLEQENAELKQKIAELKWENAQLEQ

4H949-bA = biological target: T18, 4H949-bA; test: two-hybrid library CCNG1
T18 chain: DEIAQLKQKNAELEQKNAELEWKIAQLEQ

4H349-bA = biological target: T19, 4H349-bA; test: two-hybrid library CCNG1
T19 chain: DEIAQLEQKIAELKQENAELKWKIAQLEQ

4H2444-bA = biological target: T20, 4H2444-bA; test: two-hybrid library CCNG1
T20 chain: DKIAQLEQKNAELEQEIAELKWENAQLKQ

4H855-bH = biological target: T21, 4H855-bH; test: two-hybrid library CCNG1
T21 chain: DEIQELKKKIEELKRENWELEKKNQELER

4H56-bA = biological target: T22, 4H56-bA; test: two-hybrid library CCNG1
T22 chain: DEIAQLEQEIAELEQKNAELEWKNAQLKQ

4H2253-bA = biological target: T23, 4H2253-bA; test: two-hybrid library CCNG1
T23 chain: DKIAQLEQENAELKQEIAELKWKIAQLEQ

4H3381-bA = biological target: T24, 4H3381-bA; test: two-hybrid library CCNG1
T24 chain: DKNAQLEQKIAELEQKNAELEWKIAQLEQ

Which results are given for DEIQQLEEEIAQLEWKNAARKEKNAQLKA [P3_WRA]?
interaction score (P4SN): -1.65; interaction score (P4): -1.51

How did the interaction score (4H264-bA) turn out when DKIAQLEQEIAELKQKNAELEWEIAQLKQ [4H2162-bA] was run?
Its interaction score is -1.08.

And the interaction score (4H3364-bA)?
Its interaction score is -0.464.

What about the interaction score (4H2931-bA) of the same binder?
Its interaction score is 1.13.

And the interaction score (4H796-bA)?
Its interaction score is -1.31.

What about the interaction score (4H3297-bA) of the same binder?
The interaction score was -0.125.

And the interaction score (4H2233-bA)?
The interaction score was 0.431.

And the interaction score (4H3041-bA)?
Its interaction score is 1.37.

And the interaction score (4H932-bA)?
The interaction score was -1.48.

What about the interaction score (4H2760-bA) of the same binder?
Its interaction score is -0.382.

What about the interaction score (4H2162-bA) of the same binder?
Its interaction score is 0.667.

What about the interaction score (4H2518-bA) of the same binder?
Its interaction score is 0.642.

And the interaction score (4H2585-bA)?
Its interaction score is -0.85.

And the interaction score (4H730-bA)?
Its interaction score is 0.193.

And the interaction score (4H2859-bA)?
Its interaction score is 0.326.

What about the interaction score (4H235-bA) of the same binder?
The interaction score was 0.118.

What about the interaction score (4H949-bA) of the same binder?
Its interaction score is -0.448.

What about the interaction score (4H349-bA) of the same binder?
Its interaction score is 0.82.

And the interaction score (4H2444-bA)?
The interaction score was 0.102.

And the interaction score (4H855-bH)?
The interaction score was -2.4.

What about the interaction score (4H56-bA) of the same binder?
Its interaction score is 0.371.

And the interaction score (4H2253-bA)?
The interaction score was -0.158.

And the interaction score (4H3381-bA)?
Its interaction score is -1.2.
